The values that follow come from US20210062171A1, “NOVEL SIALIDASES AND USES THEREOF” (The Regents of the University of California, priority 2019, published 2021).

Holding throughout (assay type): biochemical
Test [1] in a line: Fluorogenic sialidase assay with 4MU-α-Neu5Gc. Conditions: for Hydrolysis of 4MU-α-Neu5Gc: compost metagenomic fosmid clones in E. coli, fluorescence λex=365 nm, λem=445 nm; for Preference for Neu5Gc hydrolysis compared to known bacterial exo-sialidases: in vitro, 4MU-α-Neu5Gc versus 4MU-α-Neu5Ac, comparators Au, Cp, Mv, St, Vc sialidases. An excerpt: To determine if Neu5Gc-specific sialidases are restricted to enteric bacteria, we utilized functional metagenomic screening to identify exo-sialidases with a Neu5Gc specificity in a terrestrial environment. A fosmid library containing ˜40 kb inserts of total environmental DNA isolated from soil from an organic composting facility was constructed in E. coli Lysates from 5,376 clones were screened for hydrolysis of 4MU-α-Neu5Gc. During environmental DNA extraction 100, environmental samples 102 are collected and environmental DNA 104 is extracted. DNA extraction is followed by metagenomics library production 110 where fosmid vectors 112 are ligated with environmental DNA to produce plasmids 114 that are transfected into E. coli cells 116. During functional screening 120, one clone 122 is present per well in a well plate and hits 124 are selected by a means known in the art. Following functional screening 120, hits 132 are sequenced during a sequencing step 130 using any method for sequencing known in the art. Gene prediction and database comparison 140 is used to identify enzyme candidates 142; the enzyme candidates are expressed and characterized 150 in plasmids 152, which are transfected into E. coli and expressed as enzymes 154 for further characterization and/or use.
(§1) Following the enzyme selection process, clones showing activity were tested subsequently and re-tested for their ability to cleave 4MU-α-Neu5Ac. […] The DNA sequence of cloned inserts from C19 and C22 each encoded a single bacterial sialidase gene.
(§2) The compost metagenomic library (theoretically encoding ˜215,000 environmental genes) was differentially screened with fluorogenic 2′-(4-methylumbelliferyl)-α-D-N-glycolylneuraminic acid (4MU-α-Neu5Gc) (Sussex Research, Ottawa, CA) and 2′-(4-methylumbelliferyl)-α-D-N-acetyineuraminic acid 4MU-α-Neu5Ac (Toronto Research Chemicals, Toronto, CA) substrates. In a primary screen, library clones were grown in 384-well plates containing 50 μL LB liquid cultures (10 g tryptone. 5 g yeast extract, 10 g NaCl, 1 g dextrose, 1 g MgCl2-6H2O, 2 mL of 2M NaOH per liter, containing chloramphenicol 12.5 μg/mL and 1× inducing solution (Lucigen Corporation)) overnight at 37° C. Fifty microliters of Y-per lysis buffer (Thermo Fischer Scientific, Waltham, Mass.) containing 40 μg/mL of 4MU-α-Neu5Gc was added to each well. The mixtures were incubated overnight at 37° C. in a static incubator. Fluorescence at λex=365 nm and λem=445 nm was read with a SpectraMax Plus 384 Microplate Reader (Molecular Devices, Sunnyvale, Calif.) at 6 h, 24 h and 48 h. Positive clones were defined as those showing fluorescence greater than 3 standard deviations above the mean background, and each was re-archived in a fresh 384-well plate in sterile 20% (v/v) glycerol. […]

Test [2] in a line: Fluorogenic sialidase assay with 4MU-α-Neu5Ac. The settings on record: compost metagenomic fosmid clones in E. coli, fluorescence λex=365 nm, λem=445 nm. On the procedure:
as §1
as §2, with “Fifty microliters of Y-per lysis buffer (Thermo Fischer Scientific, Waltham, Mass.) containing 40 μg/mL of 4MU-α-Neu5Gc was added to each well. The mixtures were incubated overnight at 37° C. in a static incubator.” left out

A short description of test [3]: In vitro sialidase activity assay on mixed WT and Cmah−/− mouse serum (DMB derivatization, HPLC). The settings on record: purified enzyme 0.5-10 μg; pH 6.5, 7.0 and 8.0; 1 hour at 37° C. On the procedure: Bin13 sialidases were tested for Neu5Gc release. Each of the five sialidases genes in bin13 were PCR amplified (FIG. 12) and heterologously expressed in vitro, purified, and assayed for its substrate preference. Sialidase activity measurements were performed using different enzyme concentrations (0.5-10 μg) at three different pH levels (6.5, 7.0, and 8) (FIGS. 3A, 13). […] Additionally, we tested in vivo sialidase activity in fresh fecal samples. Clarified fecal pellets from mice fed with PSM tend to preferentially release Neu5Gc compared to clarified fecal pellets from mice fed with Soy (FIG. 3D).
Sialidases purified as described above were quantified using SDS-PAGE image analysis with BSA references (Bio-Rad) and absorbance using the Nanophotometer P330 (Implen), with extinction coefficients calculated using ExPASy Translate. […] The samples were kept at −20° C. until derivatization and analyzed by HPLC as described below. […] The DMB-derivatized samples were analyzed on a Dionex Ultra3000 HPLC System using a Phenomenex Gemini 5μ C18 250×4.6-mm HPLC column at room temperature, eluted in isocratic mode with 85% water, 7% methanol, 8% acetonitrile. […]

Test [4] can be described thus: Sialidase activity on food sources (Neu5Gc release). Conditions: 2 μg enzyme, 2 h at 37° C., Tris-HCl pH 7; beef, pork, PSM chow. An excerpt:
Fecal shotgun metagenomes from the Hadza people (Table 4), a genetically distinct indigenous ethnic group that resides in remote Tanzania was reanalyzed. The Hadza are hunter-gatherers and change their diet periodically throughout the year according to food availability. In dry seasons, their diet is enriched in meat and tubers, whereas in wet seasons it consists largely of honey and berries. Raw reads from Hadza metagenomes were mapped to bin13. […] To evaluate the sialidases genes present in the Hadza microbiome, the combined metagenomes were co-assembled and 24 genome bins containing 51 sialidase genes were identified (FIG. 17, Table 5). The binHz19, whose closest relative was Alistipes sp., was equally abundant in microbiomes from both seasons (FIG. 2B, Table 5). […] This difference supports the notion that sialidaseHz136 is capable of metabolizing structurally diverse glycans, a concept that would be of benefit to an individual with seasonal variations in diet. To additionally determine if sialidase26 and sialidaseHz136 can release Neu5Gc from food sources directly, we test their activity on beef, pork, and PSM chow as substrate.
Beef (New York Steak) and pork (breakfast sausage) were purchased at Whole Foods Market and cut in small pieces using sterile blades. PSM chow was powdered using mortar and pestle. […]

Entries after “also recorded” stand apart in the source; their conditions may differ.

B1: C19: GH33 exo-sialidase from compost soil metagenomic fosmid clone C19, SEQ ID NO. 7 (protein)
chain: MKRTGWLLLLVSGPALCQPPRGYSIPLIDLAAEAWRQTVVDREPGQYLGHPTTVLLEDGRTVLAVYPKGHGRGAIVYKRSRDGGRTWSARLPVPENWATSQETPTIHRVVDPRGRKRLILFSGLYPIRMSVSEDDGETWTPLAPIGNFGGVVAMASVERLRDGRYMALFHDDGRFLRGGGKPDRFVVYKTLSGDGGLTWSEPVPILSHPQAHLCEPGLLRSPDGRRIAILLRENSRKFNSFVSFSDDEGETWSEPRELPGALTGDRHTAVYARDGRLFISFRDTTHESPTRGDWVAWVGRFGDIENGREGQYRVRLMKNHKDLDCCYPGVLRLPDDTILTTTYGHWTPGEPPYIVSIRLRLSELDRRAQGAGR
modifications: Environmental sample
For the molecule B1, in test [1], the “Hydrolysis of 4MU-α-Neu5Gc” value is given as “significant hydrolysis; also recorded: significant activity” and the “Preference for Neu5Gc hydrolysis compared to known bacterial exo-sialidases” value is reported as “marked preference for Neu5Gc hydrolysis”. The “Activity on 4MU-α-Neu5Ac” value in test [2] is recorded as “only minor activity”.

B2: sialidase26: Bin13 GH33 sialidase from mouse gut metagenome, SEQ ID NO. 4, PDB 6MRX (protein)
chain: MKKNLFLSIIFSFCVILQAFASDTVFVRETQIPVLIERQDNVLFMLRLNAKESHTLDEVVLNFGKDVNMSDIQSVKLYYSGTEARQNYGKNFFAPVSYISSHTPGKTLAANPSYSINKSQVNNPKRKVALKANQKLFPGINYFWISLQMKPDASLLDKVAAKIAAIKVDNKEALMHTVSPENIVHRVGVGVRHAGDDGSASFRIPGLVTTNKGTLLGVYDVRYNNSADLQEHVDIGLSRSVDGGKTWEKMRLPLAFGETGDLPAAQNGVGDPSILVDTKTNTVWVVAAWTHGMGNQRAWWSSYPGMDMNHTAQLVLSKSTDDGKTWSKPINITEQVKDPSWYFLLQGPGRGITMQDGTLVFPIQFIDSTRVPNAGIMYSKDRGETWKIHNYARTNTTEAQVAEVEPGVLMLNMRDNRGGSRAISTTKDLGKTWTEHSSSRKALQEPVCMASLISVKAKDNVLNKDILLFSNPNTVKGRHHITIKASLDGGVTWLPEHQVMLDEGEGWGYSCLTMIDKETIGILYESSVAHMTFQAVQLRDIIK
modifications: Environmental sample
notes: 4, PDB 6MRX
Regarding B2, in test [3], the “Substrate preference, Neu5Gc versus Neu5Ac release” value was “preference for Neu5Gc”. The “Release of Neu5Gc from food” value in test [4] is on record as “pronounced sialidase activity by releasing Neu5Gc from all food tested”.

B3: C22: GH33 exo-sialidase from compost soil metagenomic fosmid clone C22, SEQ ID NO. 8 (protein)
chain: MVIAWMAGVQCTAAALVDLGVTILDISGEPERQVIVDREPGQYLGHVSTVLLEDDKTILAVYPKGHGRGAIVLKRSEDGGRTWSGRLPVPASWATSKETPTIHRVVDARGRRRLLLWSGLYPARRALSDDDGRTWTELEPVGEWGGIVVMGFVEATRQPGHYVAMFHDDGRYFAAQPSTNRSMTLYLTRSSDGGVSWSSPVAVWSNSAVHLCEPGGIWSPDRRRLAVLLRENRRVNNSHIMFSDDEGHTWTTPVEMPLSRAGDRHTLRYTPDGRIVCVFRAVTPVGMRGRSFGQNEDVDTLGVGSPFEGDCVAWVGTWDDLVHNRPGQYYVRLLNNRKGWDTTYPGVEVLPDGTVVVTTYGHWNAGEPPYIRSVRFRLEELDRMAAKASQKP
modifications: Environmental sample
As to B3, in test [1], the “Hydrolysis of 4MU-α-Neu5Gc” value is recorded as “significant hydrolysis; also recorded: significant activity” and the “Preference for Neu5Gc hydrolysis compared to known bacterial exo-sialidases” value is reported as “marked preference for Neu5Gc hydrolysis”. In addition, the “Activity on 4MU-α-Neu5Ac” value in test [2] is on record as “only minor activity”.

B4: sialidaseHz136: Sialidase from binHz19 of Hadza shotgun metagenome, SEQ ID NO. 6, PDB 6MNJ (protein)
chain: MMKRTFWLIALSLLSLTLSASDSLRIHNPQIPILLDRMDNVLFLIRVPDAVQGNVLESLTVEFGPDTDLNSIAELRLFYSGTEAVRRQGLRFSPVEYISAHNVWNTRSANPSYSVMQEQASKIGRKVVLHSRQPMVGGINYYWVSVRMNPDASLLTELRARVSEVVVNGKKIPVACDSREVVRRMGYGVRHAGDDHSMAYRIPGLVTTNSGSLIGTYDVRWNSSVDLQERIDIGVSRSTDKGQTWEPMRIAMSFADIDGLPSGQNGVGDPAVLVDEKTGTIWVMAAWTHGMGNGRAWTNSMPGMEPMETPQLMLARSDDDGRTWSEPINITKQVKDPSWCFLLQGPGRGITMRDGTLVFAIQFIDKDRMPHAGIIFSKDHGETWHIHNPARSNTTEAQVAEVEPGVLMLNMRDNRGGARAVMTTRDLGRTWTEHVSHRTTLREPVCMASLIAVPAEKNVLGKDLLLFSNPDTTDGRRDITIKASLDGGVTWPYSLLLDEGDSWGYSCLTMIDSQTVGILYESSVAHITFQAAKLKAIVK
modifications: Environmental sample
notes: 6, PDB 6MNJ
For the molecule B4, the “Substrate preference, Neu5Gc versus Neu5Ac release” value in test [3] is on record as “preferential activity for Neu5Gc over Neu5Ac in all tested conditions”. The “Release of Neu5Gc from food” value in test [4] is given as “pronounced sialidase activity by releasing Neu5Gc from all food tested”.
